According to article PMC9712102, “Direct activation of a bacterial innate immune system by a viral capsid protein” (Nature, 2022):

Target: T1, CapRel^SJ46, purified full-length (Salmonella temperate phage SJ46)
T1 construct: also called purified CapRel^SJ46; source: E. coli BL21 (DE3), pET24d-His10-SUMO-capRel^SJ46, purified (nickel resin, SEC, tag removed with Ulp1); not shown: His10, N-terminal, cleaved; SUMO, N-terminal, cleaved
Assay: ITC; CapRel^SJ46 (or variant) at 150 μM in the syringe titrated into Gp57 (or variant) at 10 μM in the cell; 25 °C; 50 mM HEPES pH 7.5, 500 mM KCl, 500 mM NaCl, 150 mM imidazole, 10 mM MgCl2, 1 mM TCEP, 0.002% mellitic acid
Conditions: both partners purified

B1: Gp57, purified (natural protein)
chain: MAKKYDELDATIVANHLQIQGVKTDASDMGIWTAQELHKIRSTAYEKEYPAGSALRVFPVTNELSDTDKTFEYQTFDKVGYAKIIADYTDDLPTVDALMTSEFGKVFRLGNAFLISIDEIKAGQRTGKSLSTRKANAAQNAHDQLINFLVFKGSKPHKIVSVFDHPNLTKIVSKGWMSQDGNTKFPDVASDELEAAIETIEEVTKGQHRATNILIPPSMRKVLTVRMENTTESYLEYFQKQNGGITIDSIAELEDIDGKGTKGCLVYEKDPMNMSIEIPEAFNMLPAQPKDLHFKVPCTSKCTGLTIYRPFTMVLITGLKKSV
- Kd: 350 nM
